B1: LOX1-11A2 (antibody, V domains shown)
VH: EEQLVESGGGLVQPGGSLKLSCLASGFTLSNYGMNWIRQAPGKGLEWVASISSSSSYFYYADTVKGRFTISREDAKNTLNLQMTSLRSEDTALYYCARGITIAAGFTMDAWGQGTSVTVSS
VL: DIQMTQSPTSLSASLGETVSIECRASEDIYNNLAWYQQKSGKSPQLLIYYASTLQDGVPSRFSGSGSGTQFSLKISGMQPEDEGLYYCLQGSKYPRTFGGGTKLELKR
notes: Rat anti-mouse LOX-1 monoclonal antibody; also called rat anti-mouse LOX-1 antibody 11A2
B2: purified recombinant human CRP (ligand, UniProt P02741 19-224, looked up)
chain: QTDMSRKAFVFPKESDTSYVSLKAPLTKPLKAFTVCLHFYTELSSTRGYSIFSYATKRQDNEILIFWSKDIGYSFTVGGSEILFEVPEVTVAPVHICTSWESASGIVEFWVDGKPRVRKSLKKGYTVGAEASIILGQEQDSFGGNFEGSQSLVGDIGNVNMWDFVLSPDEINTIYLGGPFSPNVLNWRALKYEVQGEVFTKPQLWP
modifications: biotin label in the AlphaScreen assays (biotin-CRP); unlabelled in ELISA and cell assays
notes: Bought protein; also called C-reactive protein; biotin-CRP
B3: LOX1-33F1 (antibody, V domains shown)
VH: QVQLKESGPGLVQPSQTLSLTCTVSGFSLTSHAVNWVRQPPGKGLEWIGAIWSGGTTDYNSGFRSRLSISRDTSKSQVLLKMNSLQTEDTAMYFCARGYDGYYYYAMDVWGQGTSVTVSS
VL: DIVMTQSPSSLAVSAGETVTINCKSSQSLLSSRNQKNYLAWYQQKPGQSPKLLIYLASTRESGVPDRFIGSGSGTDFTLTITSVQAEDLADYYCQQHYNYYTFGAGTKLELKR
notes: Rat anti-mouse LOX-1 monoclonal antibody; also called rat anti-mouse LOX-1 antibody 33F1

Experiments:
[1] = target: T1, recombinant mouse LOX-1 Fc protein (mouse, UniProt Q9EQ09 55-363, limits assumed); test: AlphaScreen competition: antibody against Bio-oxLDL binding to mFc-mLOX1
T1 construct: The order Fc then LOX-1 is read from the label mFc-mLOX1; also called mFc-mLOX1; not shown: Fc part (label 'mFc')

[2] = target: T1, recombinant mouse LOX-1 Fc protein; test: as above; remark: listed apart in the source
[3] = target: T2, human LOX-1 expressed on the cell surface (human, UniProt P78380 1-273); test: flow cytometry, CRP on CHO/LOX-1 cells, detected with rabbit anti-CRP antibody; FACS on CHO/LOX-1 cells, 4 C
T2 construct: whole, on cells; also called CHO/LOX-1; CHO-LOX-1
Procedure: (§1) Cells were analyzed using a Becton Dickinson FACSCalibur® flow cytometer with CellQuest software (Becton Dickinson). Results are presented as the geometric mean fluorescence intensity (MFI).

[4] = target: T2, human LOX-1 expressed on the cell …; test: flow cytometry, CRP on LOX/CHO cells
Procedure: as §1

[5] = target: T2, human LOX-1 expressed on the cell …; test: flow cytometry: CRP (0-200 ug/ml) on CHO/LOX-1 cells, 60 min at 4 C, rabbit anti-CRP and labelled secondary antibody, MFI
Procedure: as §1

[6] = target: T1, recombinant mouse LOX-1 Fc protein; test: AlphaScreen competition: antibody against Bio-CRP binding to mFc-mLOX1; Bio-CRP + mFc-mLOX1 competition, not Bio-oxLDL
[7] = target: T1, recombinant mouse LOX-1 Fc protein; test: AlphaScreen competition: antibody against Bio-CRP binding to mFc-mLOX1

T1 sequence (Q9EQ09 55-363 limits assumed): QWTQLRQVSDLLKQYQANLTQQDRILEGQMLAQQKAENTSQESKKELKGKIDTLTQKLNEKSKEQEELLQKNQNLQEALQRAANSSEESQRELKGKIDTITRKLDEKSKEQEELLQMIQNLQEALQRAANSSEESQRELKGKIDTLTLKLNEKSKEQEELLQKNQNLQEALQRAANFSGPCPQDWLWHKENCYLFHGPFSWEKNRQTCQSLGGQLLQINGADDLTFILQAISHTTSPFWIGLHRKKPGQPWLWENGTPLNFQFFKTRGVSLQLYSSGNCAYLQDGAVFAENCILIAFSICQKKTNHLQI

Row | Binder | IC50 [1] [µg/mL] | IC50 [2] [µg/mL] | Kd [3] [µg/mL] | Kd [4] [nM] | Kd [5] [µg/mL] | IC50 [6] [µg/mL] | IC50 [7] [µg/mL]
1 | B1 | 0.127 | 0.127 |  |  |  |  | 
2 | B2 |  |  | 86 | 747 | 86.6 |  | 
3 | B3 | 0.03 | 0.03 |  |  |  | 0.193 | 0.193

From US20090311271A1 (Pfizer, published 2009)
